Test results reported in doi:10.1101/862326.
Read-outs that look alike come from different tables or passages of the source.

Columns and labels:
Assay in all cases: ITC
TRBP2-dsRBD1 [1] = molecular target: T1, TRBP2-dsRBD1 (UniProt Q15633 1-105)
T1 sequence: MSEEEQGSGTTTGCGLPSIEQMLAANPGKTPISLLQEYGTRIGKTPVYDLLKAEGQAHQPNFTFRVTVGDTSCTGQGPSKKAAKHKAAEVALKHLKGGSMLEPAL

dADAR-dsRBD1 [2] = molecular target: T2, dADAR-dsRBD1 (UniProt Q9NII1 48-140)
T2 sequence: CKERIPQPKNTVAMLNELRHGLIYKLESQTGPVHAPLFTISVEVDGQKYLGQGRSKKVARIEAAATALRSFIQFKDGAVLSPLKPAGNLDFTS

TRBP2-dsRBD1 [3] = molecular target: T1, TRBP2-dsRBD1; remark: listed apart in the source
dADAR-dsRBD1 [4] = molecular target: T2, dADAR-dsRBD1; remark: listed apart in the source
TRBP2-dsRBD1 [5] = molecular target: T1, TRBP2-dsRBD1; remark: listed apart in the source
dADAR-dsRBD1 [6] = molecular target: T2, dADAR-dsRBD1; remark: listed apart in the source
TRBP2-dsRBD1 [7] = molecular target: T1, TRBP2-dsRBD1; remark: listed apart in the source
dADAR-dsRBD1 [8] = molecular target: T2, dADAR-dsRBD1; remark: listed apart in the source
dADAR-dsRBD1 [9] = molecular target: T2, dADAR-dsRBD1; remark: listed apart in the source
TRBP2-dsRBD1 [10] = molecular target: T1, TRBP2-dsRBD1; remark: listed apart in the source

B1: D10RNA (dsRNA)
RNA 1: UUAUAAAUGC
RNA 2: GCAUUUAUGA
Kd (TRBP2-dsRBD1 [1]): 2210 ± 510 nM | Kd (dADAR-dsRBD1 [2]): 210 ± 100 nM

B2: miR-16-1-M (dsRNA)
RNA 1: UAGCAGCACGUAAAUAUUGGCG
RNA 2: CCAGUAUUAACGUGCUGCUGAA
Kd (TRBP2-dsRBD1 [3]): 2120 ± 220 nM | Kd (dADAR-dsRBD1 [4]): 780 ± 240 nM

B3: miR-16-1 (dsRNA)
RNA 1: UAGCAGCACGUAAAUAUUGGCG
RNA 2: CCAGUAUUAACUGUGCUGCUGAA
Kd (TRBP2-dsRBD1 [5]): 890 ± 210 nM | Kd (dADAR-dsRBD1 [6]): 270 ± 50 nM

B4: miR-16-1-D (dsRNA)
RNA 1: UAGCAGCACGUAAAUAUUGGCG
RNA 2: CCAGUAUUUACGUGCUGCUGAA
Kd (TRBP2-dsRBD1 [7]): 500 ± 40 nM | Kd (dADAR-dsRBD1 [8]): 430 ± 100 nM

B5: miR-16-1-B (dsRNA)
RNA 1: UAGCAGCACGUAAAUAUUGGCG
RNA 2: CCAGUAUUUACUGUGCUGCUGAA
Kd (dADAR-dsRBD1 [9]): 270 ± 70 nM | Kd (TRBP2-dsRBD1 [10]): 690 ± 130 nM
